Read-outs that look alike come from different tables or passages of the source. Side chains are listed from the residue outwards. maleimide = maleimide group on PEG that conjugates to a cysteine thiol
Experiments:
[1] = Effects on body weight and physiological characteristics of mice; settings: 1 mg/kg s.c. once every three days, three times
Procedure: SPF grade Balb/c mice were purchased, with 3 mice in each group. Administration was started on the day of grouping. The test substance or PBS (negative control group) was administered subcutaneously at a dose of 1 mg/kg, once every three days, for a total of three times. The mice were weighed before each administration and three days after the third administration .

Treg cells = assay: P-STAT5 activation in Treg cells of human PBMCs (flow cytometry); assay type: cell-based; settings: P-STAT5 MFI in CD3+/CD4+/CD25+ cells of human PBMCs, 30 min stimulation
Procedure: In the example, the activation effect of each mutant prepared in Example 6 on P-STAT5 in different cell subsets (Tregs, CD8+T cells, NK cells) from human PBMCs (Miaoshun Biotechnology) was detected.
Human PBMC cells were thawed and resuspended to 1.5×10^6 cells/ml in RPMI1640 medium containing 10% FBS. 100 µl was added to each well of a V-bottom 96-well culture plate. Each IL-2 mutant prepared in Example 6 was diluted 10-fold in series: 1000 nM was used as the working concentration for the first well, and then 100 µl/well of each serial dilution was added to each cultured cell, stimulated at 37°C for 30 min, and the reaction was terminated on ice. The cells were treated with a commercial fixative and permeabilization agent (BD biosciences 558049 & 558050), and stained with antibodies against CD3, CD4, CD25, and CD8 according to conventional methods. P-STAT5 antibody staining was also performed (Table 7) to detect the mean fluorescence intensity (MFI) of P-STAT5 in CD3+/CD4+/CD25+ (Treg cells) and CD8+/CD3+ cells ([…]) by flow cytometry.

[2] = Pharmacokinetic study in mice, single administration, plasma concentration by ELISA; settings: 1 mg/kg s.c. single administration
Procedure: Balb/c mice were purchased, with 4 mice in each group. Each IL-2 mutant to be tested was administered subcutaneously once at a dose of 1 mg/kg. Blood was collected from the orbit at different time points after administration, and the plasma was separated and the plasma drug concentration was detected by ELISA. The main pharmacokinetic parameters were calculated, and C-T curve was plotted.

IL-2Rαβγ triple receptor [3] = molecular target: T1, IL-2Rαβγ triple receptor (UniProt P01589 22-272; P14784 27-551; P31785 23-369); assay: cell-based or functional assay
T1 sequence (looked up) 1: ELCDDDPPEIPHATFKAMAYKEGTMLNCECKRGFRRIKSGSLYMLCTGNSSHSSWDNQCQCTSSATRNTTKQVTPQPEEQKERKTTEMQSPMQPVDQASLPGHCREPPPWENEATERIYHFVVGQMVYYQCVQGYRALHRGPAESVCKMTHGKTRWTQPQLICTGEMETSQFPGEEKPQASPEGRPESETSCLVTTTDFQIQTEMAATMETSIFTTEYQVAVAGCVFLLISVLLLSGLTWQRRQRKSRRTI
T1 sequence (looked up) 2: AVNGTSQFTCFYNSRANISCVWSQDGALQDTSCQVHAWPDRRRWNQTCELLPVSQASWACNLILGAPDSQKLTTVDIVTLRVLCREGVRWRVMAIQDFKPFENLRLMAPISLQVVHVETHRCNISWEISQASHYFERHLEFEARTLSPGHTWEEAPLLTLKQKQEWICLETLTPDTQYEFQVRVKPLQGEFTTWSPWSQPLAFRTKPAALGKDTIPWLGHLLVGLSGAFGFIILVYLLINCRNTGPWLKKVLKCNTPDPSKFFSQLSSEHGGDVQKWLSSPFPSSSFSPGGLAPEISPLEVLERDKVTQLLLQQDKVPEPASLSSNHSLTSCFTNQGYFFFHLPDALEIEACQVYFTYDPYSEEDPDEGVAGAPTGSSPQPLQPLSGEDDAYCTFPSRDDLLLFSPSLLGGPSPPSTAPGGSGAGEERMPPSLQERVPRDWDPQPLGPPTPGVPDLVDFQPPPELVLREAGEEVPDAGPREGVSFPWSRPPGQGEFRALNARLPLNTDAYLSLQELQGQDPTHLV
T1 sequence (looked up) 3: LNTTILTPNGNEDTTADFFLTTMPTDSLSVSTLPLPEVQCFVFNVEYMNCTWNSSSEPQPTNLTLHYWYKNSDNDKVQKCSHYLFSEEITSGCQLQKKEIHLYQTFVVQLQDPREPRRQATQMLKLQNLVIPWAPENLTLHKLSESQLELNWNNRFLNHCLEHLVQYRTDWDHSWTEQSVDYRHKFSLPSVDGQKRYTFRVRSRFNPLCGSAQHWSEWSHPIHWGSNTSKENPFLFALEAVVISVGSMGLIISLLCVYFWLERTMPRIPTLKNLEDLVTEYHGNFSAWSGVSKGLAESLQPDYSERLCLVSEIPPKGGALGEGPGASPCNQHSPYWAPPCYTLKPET

IL-2αβγ triple receptor = molecular target: T2, IL-2αβγ triple receptor (Homo sapiens, UniProt P01589+P14784+P31785); assay: STAT5 reporter gene assay, activation of IL-2αβγ triple receptor in 293EC18/αβγ/JAK3/STAT5 cells; assay type: cell-based; settings: Example 3, Table 2 and Figure 3
T2 construct: Uniprot P01589 1Met-551Ile constructed into plasmid pcDNA3.1/zeo; Uniprot P14784 1Met-551Val constructed into plasmid pcDNA3.1(+); Uniprot P31785 1Met-551Thr was constructed into plasmid pcDNA3.1/zeo; expressed in transfected cells; host or cells: 293EC18 cells, transient co-transfection with pCMV/JAK3 and PGL4.52/STAT5RE
T2 sequence (P01589 22-272): T1 sequence (looked up) 1
T2 sequence (P14784 27-551): T1 sequence (looked up) 2
T2 sequence (P31785 23-369): T1 sequence (looked up) 3
Procedure: Since the binding of IL-2 to the β and γ subunits of its receptor induces STAT5 phosphorylation, which subsequently leads to dimerization and translocation into the nucleus to promote target gene transcription, this example evaluates the ability of the mutant IL-2 polypeptides to induce signaling through the IL-2 receptor by measuring STAT5 phosphorylation.
Adherent 293EC18 cells were cultured to about 90% confluence using conventional methods. After trypsin digestion, the cells were resuspended in cell culture medium to 4×10^5 cells/ml and 50 µl/well were added to two 96-well cell culture plates. After incubation at 37°C for 48 h, the supernatant was aspirated and fresh culture medium was added. […]
Each IL2 mutant was diluted 4-fold in a gradient manner using PBS buffer, with a total of 11 dilutions and a starting concentration of 65.2 nM. […] Bio-Lite Luciferase Assay System reagents that have been mixed and equilibrated to room temperature were added to the cell culture plates to be tested at 100 µl/well, placed on a microplate shaker at 450 rpm to mix for 2 minutes, then allowed to stand at room temperature for 3 minutes, and the chemiluminescence value was detected with an enzyme plate reader.
The logarithm of the final concentration of each IL-2 mutant sample was used as the X-axis, and the chemiluminescence detection results were used as the Y-axis for plotting. Data were analyzed using the four-parameter logistic regression model in GraphPad Prism 9. Table 2 EC50 values for the activation of the IL-2αβγ triple receptor by PEG-IL-2 mutants as determined by a reporter gene assay.
According to the method of Example 3, each polyethylene glycol-modified mutant obtained in this example was assessed for the binding preference to the IL2 receptors by a reporter assay. Table 4 EC50 values for the activation of the IL-2αβγ triple receptor by PEG-IL-2 mutants as determined by a reporter gene assay. […]

IL-2Rαβγ triple receptor [4] = molecular target: T1, IL-2Rαβγ triple receptor; assay: cell-based or functional assay; remark: listed apart in the source
IL-2Rαβγ triple receptor [5] = molecular target: T1, IL-2Rαβγ triple receptor; assay: cell-based or functional assay; remark: listed apart in the source

Molecule: 80K-1PEG-IL2-N88R-D109C: IL-2 mutant N88R, D109C, conjugation site 109, PEG molecular weight 80kD
- toxic side effects on mice [1]: relatively obvious toxic side effects
- visual observation of the mice [1]: listless, had poor motility
- body weight compared with negative control ([1]; three days after the third dose): significantly lower than that of the negative control

Molecule: 40K-1PEG-IL2-N88R-N77C: IL2-N88R-N77C with 40 kDa PEG conjugated to the cysteine at position 77
- EC50 (Treg cells): 38 nM
- AUC inf [2]: 307.71336 ± 53.89144 µg·h/mL
- AUClast [2]: 306.70767 ± 53.98797 µg·h/mL
- CL [2]: 3.32±0.5
- Cmax [2]: 6581.76 ± 1168.04 ng/mL
- MRT [2]: 31.57 ± 1.16 h
- T1/2 [2]: 11.33 ± 0.97 h
- Tmax [2]: 8 to 24 h

Molecule: rh IL-2 (from UniProt P60568 21-153) (ligand)
- Activation of IL-2αβγ receptor EC50 (STAT5 luciferase reporter gene assay) (IL-2Rαβγ triple receptor [3]): 0.00848 nM
- Activation of IL-2αβγ triple receptor EC50 (STAT5 luciferase reporter gene assay) (IL-2Rαβγ triple receptor [3]): 0.00411 nM
- EC50 for activation of the IL-2αβγ triple receptor (STAT5 luciferase reporter gene assay) (IL-2Rαβγ triple receptor [3]): 0.00543 nM

Molecule: 80k-1PEG-IL2-D84C: IL-2 (C125S) mutant D84C with one 80k PEG-maleimide conjugated to cysteine 84
- activation of the IL-2Rαβγ triple receptor compared with the control IL2-N88R (IL-2αβγ triple receptor): even stronger activation

B1: 20K-1PEG-IL2-N88R-D109C (ligand)
chain: APTSSSTKKTQLQLEHLLLDLQMILNGINNYKNPKLTRMLTFKFYMPKKATELKHLQCLEEELKPLEEVLNLAQSKNFHLRPRDLISXINVIVLELKGSETTFMCEYAXETATIVEFLNRWITFSQSIISTLT
modifications: not fully specified; one 20 kD PEG-maleimide conjugated to Cys 109
- EC50 for activation of the IL-2αβγ triple receptor (STAT5 luciferase reporter gene assay) (IL-2Rαβγ triple receptor [4]): 0.0786 nM

B2: 20K-1PEG-IL2-N88R-N77C (ligand)
chain: APTSSSTKKTQLQLEHLLLDLQMILNGINNYKNPKLTRMLTFKFYMPKKATELKHLQCLEEELKPLEEVLNLAQSKC([maleimide-PEG 20 kDa])FHLRPRDLISRINVIVLELKGSETTFMCEYADETATIVEFLNRWITFSQSIISTLT
modifications: not fully specified
- EC50 for activation of the IL-2αβγ triple receptor (STAT5 luciferase reporter gene assay) (IL-2Rαβγ triple receptor [4]): 0.0705 nM

B3: 80K-1PEG-IL2-N88R-D109C (ligand)
chain: B1 chain
modifications: one 80 kD PEG-maleimide conjugated to Cys 109
- EC50 for activation of the IL-2αβγ triple receptor (STAT5 luciferase reporter gene assay) (IL-2Rαβγ triple receptor [4]): 0.407 nM

B4: 80K-1PEG-IL2-N88R-N77C (ligand)
chain: APTSSSTKKTQLQLEHLLLDLQMILNGINNYKNPKLTRMLTFKFYMPKKATELKHLQCLEEELKPLEEVLNLAQSKC(PEG 80 kDa)FHLRPRDLISRINVIVLELKGSETTFMCEYADETATIVEFLNRWITFSQSIISTLT
- EC50 for activation of the IL-2αβγ triple receptor (STAT5 luciferase reporter gene assay, 293EC18/αβγ/JAK3/STAT5 cells) (IL-2Rαβγ triple receptor [5]): 0.184 nM
- EC50 for activation of the IL-2αβγ triple receptor (STAT5 luciferase reporter gene assay) (IL-2Rαβγ triple receptor [4]): 0.246 nM

B5: 80k-1PEG-IL2-N88R-N33C (ligand)
chain: APTSSSTKKTQLQLEHLLLDLQMILNGINNYKC(PEG 80 kDa)PKLTRMLTFKFYMPKKATELKHLQCLEEELKPLEEVLNLAQSKNFHLRPRDLISRINVIVLELKGSETTFMCEYADETATIVEFLNRWITFSQSIISTLT
- EC50 for activation of the IL-2αβγ triple receptor (STAT5 luciferase reporter gene assay, 293EC18/αβγ/JAK3/STAT5 cells) (IL-2Rαβγ triple receptor [5]): 0.00386 nM

B6: 80k-1PEG-IL2-N88R-S75C (ligand)
chain: APTSSSTKKTQLQLEHLLLDLQMILNGINNYKNPKLTRMLTFKFYMPKKATELKHLQCLEEELKPLEEVLNLAQC(PEG 80 kDa)KNFHLRPRDLISRINVIVLELKGSETTFMCEYADETATIVEFLNRWITFSQSIISTLT
- EC50 for activation of the IL-2αβγ triple receptor (STAT5 luciferase reporter gene assay, 293EC18/αβγ/JAK3/STAT5 cells) (IL-2Rαβγ triple receptor [5]): 1.26 nM

B7: 20K-1PEG-IL2-N88R-N77C: IL-2 mutant N88R, N77C, conjugation site 77, PEG molecular weight 20kD (conjugate)
chain: APTSSSTKKTQLQLEHLLLDLQMILNGINNYKNPKLTRMLTFKFYMPKKATELKHLQCLEEELKPLEEVLNLAQSKC(PEG 20 kDa)FHLRPRDLISRINVIVLELKGSETTFMCEYADETATIVEFLNRWITFSQSIISTLT
- EC50 (Treg cells): 6.14 nM
- AUC inf [2]: 22.88236 ± 3.52254 µg·h/mL
- AUClast [2]: 21.76228 ± 3.58639 µg·h/mL
- CL [2]: 44.4±6.99
- Cmax [2]: 1276.71 ± 273.3 ng/mL
- MRT [2]: 11.68 ± 0.08 h
- T1/2 [2]: 7.62 ± 0.57 h
- Tmax [2]: 4 to 8 h

— patent publication EP4631972A1, “SITE-SPECIFIC COUPLED PEGYLATED INTERLEUKIN-2 MUTANT WITH RECEPTOR AFFINITY PREFERENCE AND USE THEREOF” (priority 2022, dated 2024)
